According to patent publication US20130273053A1 (UNIVERSITY OF LEICESTER, published 2013):

Target: T1, human MASP-3 (human)
T1 construct: also called MASP-3 antigen
T1 chain: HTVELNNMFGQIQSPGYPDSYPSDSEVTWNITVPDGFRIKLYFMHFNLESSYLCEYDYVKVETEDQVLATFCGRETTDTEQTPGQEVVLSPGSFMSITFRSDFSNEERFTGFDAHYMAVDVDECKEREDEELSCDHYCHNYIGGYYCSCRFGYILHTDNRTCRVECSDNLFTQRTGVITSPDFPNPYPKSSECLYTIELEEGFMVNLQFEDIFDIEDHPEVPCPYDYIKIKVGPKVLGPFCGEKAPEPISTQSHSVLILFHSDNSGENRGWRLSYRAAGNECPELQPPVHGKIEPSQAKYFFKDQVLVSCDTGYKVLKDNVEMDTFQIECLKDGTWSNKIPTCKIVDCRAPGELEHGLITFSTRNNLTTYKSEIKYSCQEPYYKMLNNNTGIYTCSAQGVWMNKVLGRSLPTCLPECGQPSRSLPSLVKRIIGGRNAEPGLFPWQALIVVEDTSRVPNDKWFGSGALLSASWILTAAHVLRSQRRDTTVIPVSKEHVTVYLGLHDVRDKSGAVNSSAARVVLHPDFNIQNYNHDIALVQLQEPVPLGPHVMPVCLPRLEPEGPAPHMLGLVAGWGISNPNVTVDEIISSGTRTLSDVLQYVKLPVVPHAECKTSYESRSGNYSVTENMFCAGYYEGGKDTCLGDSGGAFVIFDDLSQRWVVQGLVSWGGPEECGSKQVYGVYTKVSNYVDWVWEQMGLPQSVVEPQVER
Assay: saturation binding, DTLacO cells stained with fluorescent-labeled soluble antigen
Excerpt: Recombinant antibodies were generated by cloning PCR-amplified V regions into a vector that supported expression of human IgG1 in 293F cells (Yabuki et al., PLoS ONE, 7(4):e36032 (2012)).

B1: MASP-3 specific clone M3J5 (antibody, IgM, V domains shown)
VH: AVTLDESGGGLQTPGGGLSLVCKASGFTFSSYAMGWMRQAPGKGLEYVAGIRSDGSFTLYATAVKGRATISRDNGQSTVRLQLNNLRAEDTATYFCTRSGNVGDIDAWGHGTEVIVSS
VL: ALTQPASVSANPGETVKITCSGGYSGYAGSYYYGWYQQKAPGSAPVTLIYYNNKRPSDIPSRFSGSLSGSTNTLTITGVRADDEAVYFCGSADNSGAAFGAGTTLTVL
notes: Chicken V regions; also called Clone 5; DTLacO clone M3J5
Question: B1 was tested. Which Kd did it give?
Answer: Its Kd is ~0.031 µM.
